# Results published in US11278600B2, “Human alpha-galactosidase variants” (Codexis, Inc., priority 2014, dated 2022).
# What was measured:
# Assay type in all cases: biochemical
# [1] = HTP-analysis of supernatants pretreated with acid (MUGal hydrolysis); settings: activity of the variant/activity of Rd4BB (SEQ ID NO: 15); challenge at pH 3.7
# Summary of the method: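 Supernatants from INVSc1 yeast secreting GLA variants were challenged at 37° C. for 1-3 h in McIlvaine buffer at pH 3.3-4.3. Residual activity was then measured on 4 mM MUGal substrate stock at pH 4.8 with citrate buffer pH 4.3, over 30-180 min at 37° C. Reactions were quenched with sodium carbonate and read by fluorescence (Ex 355/Em 448 nm).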
# [2] = HTP-analysis of supernatants pretreated with base (MUGal hydrolysis); settings: activity of the variant/activity of Rd4BB (SEQ ID NO: 15); challenge at pH 9.65
# Summary of the method: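 GLA variants were secreted by transformed INVSc1 yeast grown 66-84 h at 30° C. Supernatants were exposed to neutral-to-basic buffers (pH 7.0-9.7) at 37° C for 1-18 h, then assayed with MUGal in acidic citrate/McIlvaine buffer, with fluorescence read after quenching.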
# [3] = HTP-analysis of yeast culture supernatants, no challenge (MUGal hydrolysis); settings: activity of the variant/activity of Rd4BB (SEQ ID NO: 15)
# Summary of the method: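 GLA variants expressed in yeast INVSc1, secreted into SD-Ura broth over 66-84 h at 30° C; clarified supernatants tested without challenge. Supernatant mixed with McIlvaine buffer pH 4.8 and 2 mM MUGal (citrate/KCl, pH 4.6), 37° C for 30-180 min, carbonate-quenched, fluorescence Ex 355/Em 448 nm.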
Molecule,Relative Activity of GLA Variants After Challenge at pH 3.7 [1],Relative Activity of GLA Variants After Challenge at pH 9.65 [2],Relative Activity of GLA Variants After No Challenge (NC) [3]
"372 (protein, Synthetic Polypeptide sequence of Variant No. 372 of mature Human GLA) LDNGLARTPTMGWLHWERFMCNLDCQEEPDSCISEKLFMEMAEVMVSEGWKDAGYEYLCIDDCWMAPQRDSEGRLQADPQRFPHGIRQLANYVHSKGLKLGIYADVGNKTCAGFPGSFGYYDIDAQTFADWGVDLLKFDGCYCDSLENLADGYKHMSLALNRTGRSIVYSCEWPLYMWPFQKPNYTEIRQYCNHWRNFADIDDSWKSIKSILDWTSRNQERIVDVAGPGGWNDPDMLVIGNFGLSWDQQVTQMALWAIMAAPLFMSNDLRHISPQAKALLQDKDVIAINQDPLGKQGYQLRKGDNFEVWERPLSGDAWAVAIINRQEIGGPRSYTIPVASLGKGVACNPACFITQLLPVKRQLGFYNWTSRLKSHINPTGTVLLQLENTMQMSLKDLL",− (<0.5 relative activity over Rd4BB (SEQ ID NO: 15)),+ (0.5 to 1.5 relative activity over Rd4BB (SEQ ID NO: 15)),+ (0.5 to 1.5 relative activity over Rd4BB (SEQ ID NO: 15))
"373 (protein, Synthetic Polypeptide sequence of Variant No. 373 of mature Human GLA) LDNGLARTPTMGWLHWERFMCNLDCQEEPDSCISEKLFMERAERMVSEGWKDAGYEYLCIDDCWMAPQRDSEGRLQADPQRFPHGIRQLANYVHSKGLKLGIYADVGNKTCAGFPGSFGYYDIDAQTFADWGVDLLKFDGCYCDSLENLADGYKHMSLALNRTGRSIVYSCEWPLYMWPFQKPNYTEIRQYCNHWRNFADIDDSWKSIKSILDWTSRNQERIVDVAGPGGWNDPDMLVIGNFGLSWDQQVTQMALWAIMAAPLFMSNDLRHISPQAKALLQDKDVIAINQDPLGKQGYQLRKGDNFEVWERPLSGDAWAVAIINRQEIGGPRSYTIPVASLGKGVACNPACFITQLLPVKRQLGFYNWTSRLKSHINPTGTVLLQLENTMQMSLKDLL",− (<0.5 relative activity over Rd4BB (SEQ ID NO: 15)),− (<0.5 relative activity over Rd4BB (SEQ ID NO: 15)),− (<0.5 relative activity over Rd4BB (SEQ ID NO: 15))
"505 (protein, Synthetic Polypeptide sequence of Variant No. 505 of mature Human GLA) LDNGLARTPTMGWLHWERFMCNLDCQEEPDSCISEKLFMEMAERMVSEGWKDAGYEYLCIDDCWMAPQRDSEGRLQADPQRFPHGIRQLANYVHSKGLKLGIYADVGNKTCAGFPGSFGYYDIDAQTFADWGVDLLKFDGCYCDSLENLADGYKHMSLALNRTGRSIVYSCEWPLYMWPFQKPNYTEIRQYCNHWRNFADIDDSWKSIKSILDWTSFNQERIVDVAGPGGWNDPDMLVIGNFGLSWNQQVTQMALWAIMAAPLFMSNDLRHISPQAKALLQDKDVIAINQDPLGKQGYQLRQGDNFEVWERPLSGLAWAVAMINRQEIGGPRSYTIAVASLGKGVACNPACFITQLLPVKRKLGFYEWTSRLRSHINPTGTVLLQLENTMQNSLKDLL",+ (0.5 to 1.5 relative activity over Rd4BB (SEQ ID NO: 15)),+ (0.5 to 1.5 relative activity over Rd4BB (SEQ ID NO: 15)),+ (0.5 to 1.5 relative activity over Rd4BB (SEQ ID NO: 15))
"506 (protein, Synthetic Polypeptide sequence of Variant No. 506 of mature Human GLA) LDNGLARTPTMGWLHWERFMCNLDCQEEPDSCISEKLFMEMAERMVSEGWKDAGYEYLCIDDCWMAPQRDSEGRLQADPQRFPHGIRQLANYVHSKGLKLGIYADVGNKTCAGFPGSFGYYDIDAQTFADWGVDLLKFDGCYCDSLENLADGYKHMSLALNRTGRSIVYSCEWPLYMWPFQKPNYTEIRQYCNHWRNFADIDDSWKSIKSILDWTSFNQERIVDVAGPGGWNDPDMLVIGNFGLSWNQQVTQMALWAIMAAPLFMSNDLRHISPQAKALLQDKDVIAINQDPLGKQGYQLRQGDNFEVWERPLSGLAWAVAMINRQEIGGPRSYTIAVASLGKGVACNPACFITQLLPVKRKLGFYEWTSRLRSHINPTGTVLLWLENTMQMSLKDLL",+ (0.5 to 1.5 relative activity over Rd4BB (SEQ ID NO: 15)),− (<0.5 relative activity over Rd4BB (SEQ ID NO: 15)),+ (0.5 to 1.5 relative activity over Rd4BB (SEQ ID NO: 15))
"508 (protein, Synthetic Polypeptide sequence of Variant No. 508 of mature Human GLA) LDNGLARTPTMGWLHWERFMCNLDCQEEPDSCISEKLFMEMAERMVSEGWKDAGYEYLCIDDCWMAPQRDSEGRLQADPQRFPHGIRQLANYVHSKGLKLGIYADVGNKTCAGFPGSFGYYDIDAQTFADWGVDLLKFDGCYCDSLENLADGYKHMSLALNRTGRSIVYSCEWPLYMWPFQKPNYTEIRQYCNHWRNFADIDDSWKSIKSILDWTSFNQERIVDVAGPGGWNDPDMLVIGNFGLSWNQQVTQMALWAIMAAPLFMSNDLRHISPQAKALLQDKDVIAINQDPLGKQGYQLRQGDNFEVWERPLSGLAWAVAMINRQEIGGPRSYTIAVASLGKGVACNPACFITQLLPVKRKLGFYEWTSRLRSHINPTGTVLAQLENTMQMSLKDLL",− (<0.5 relative activity over Rd4BB (SEQ ID NO: 15)),− (<0.5 relative activity over Rd4BB (SEQ ID NO: 15)),− (<0.5 relative activity over Rd4BB (SEQ ID NO: 15))
"507 (protein, Synthetic Polypeptide sequence of Variant No. 507 of mature Human GLA) LDNGLARTPTMGWLHWERFMCNLDCQEEPDSCISEKLFMEMAERMVSEGWKDAGYEYLCIDDCWMAPQRDSEGRLQADPQRFPHGIRQLANYVHSKGLKLGIYADVGNKTCAGFPGSFGYYDIDAQTFADWGVDLLKFDGCYCDSLENLADGYKHMSLALNRTGRSIVYSCEWPLYMWPFQKPNYTEIRQYCNHWRNFADIDDSWKSIKSILDWTSFNQERIVDVAGPGGWNDPDMLVIGNFGLSWNQQVTQMALWAIMAAPLFMSNDLRHISPQAKALLQDKDVIAINQDPLGKQGYQLRQGDNFEVWERPLSGLAWAVAMINRQEIGGPRSYTIAVASLGKGVACNPACFITQLLPVKRKLGFYEWTSRLRSHINPTGTVLLQLENTMQTSLKDLL",++ (>1.5 to 2.5 relative activity over Rd4BB (SEQ ID NO: 15)),+ (0.5 to 1.5 relative activity over Rd4BB (SEQ ID NO: 15)),+ (0.5 to 1.5 relative activity over Rd4BB (SEQ ID NO: 15))
"509 (protein, Synthetic Polypeptide sequence of Variant No. 509 of mature Human GLA) LDNGLARTPTMGWLHWERFMCNLDCQEEPDSCISEKLFMEMAERMVSEGWKDAGYEYLCIDDCWMAPQRDSEGRLQADPQRFPHGIRQLANYVHSKGLKLGIYADVGNKTCAGFPGSFGYYDIDAQTFADWGVDLLKFDGCYCDSLENLADGYKHMSLALNRTGRSIVYSCEWPLYMWPFQKPNYTEIRQYCNHWRNFADIDDSWKSIKSILDWTSFNQERIVDVAGPGGWNDPDMLVIGNFGLSWNQQVTQMALWAIMAAPLFMSNDLRHISPQAKALLQDKDVIAINQDPLGKQGYQLRQGDNFEVWERPLSGLAWAVAMINRQEIGGPRSYTIAVASLGKGVACNPACFITQLLPVKRKLGFYEWTSRLRSHINPTGTVLLTLENTMQMSLKDLL",+ (0.5 to 1.5 relative activity over Rd4BB (SEQ ID NO: 15)),+ (0.5 to 1.5 relative activity over Rd4BB (SEQ ID NO: 15)),+ (0.5 to 1.5 relative activity over Rd4BB (SEQ ID NO: 15))
"510 (protein, Synthetic Polypeptide sequence of Variant No. 510 of mature Human GLA) LDNGLARTPTMGWLHWERFMCNLDCQEEPDSCISEKLFMEMAERMVSEGWKDAGYEYLCIDDCWMAPQRDSEGRLQADPQRFPHGIRQLANYVHSKGLKLGIYADVGNKTCAGFPGSFGYYDIDAQTFADWGVDLLKFDGCYCDSLENLADGYKHMSLALNRTGRSIVYSCEWPLYMWPFQKPNYTEIRQYCNHWRNFGDIDDSWKSIKSILDWTSFNQERIVDVAGPGGWNDPDMLVIGNFGLSWNQQVTQMALWAIMAAPLFMSNDLRHISPQAKALLQDKDVIAINQDPLGKQGYQLRQGDNFEVWERPLSGLAWAVAMINRQEIGGPRSYTIAVASLGKGVACNPACFITQLLPVKRKLGFYEWTSRLRSHINPTGTVLLQLENTMQRSLKDLL",− (<0.5 relative activity over Rd4BB (SEQ ID NO: 15)),+ (0.5 to 1.5 relative activity over Rd4BB (SEQ ID NO: 15)),+ (0.5 to 1.5 relative activity over Rd4BB (SEQ ID NO: 15))
